Assay results published in PMC8480667 (The Journal of Experimental Medicine, 2021).

How the values were obtained:
[1] = target: human α1β3γ2 GABAA receptor on HEK293T cells (Homo sapiens, UniProt P14867;P28472;P18507); assay: flow cytometry on cells
[2] = target: rat α1β3γ2 GABAA receptor on HEK293T cells (Rattus norvegicus, UniProt P62813;P63079;P18508); assay: flow cytometry on cells
[3] = target: rodent α2β3γ2 GABAA receptor on COS7 cells (Rattus norvegicus (paper: rodent), UniProt P23576;P63079;P18508); assay: immunostaining of cells or tissue
[4] = target: rodent GABAA receptor γ2 subunit alone on COS7 cells (Rattus norvegicus (paper: rodent), UniProt P18508); assay: immunostaining of cells or tissue
[5] = target: rodent α1β3 GABAA receptor on COS7 cells (Rattus norvegicus, UniProt P62813;P63079); assay: immunostaining of cells or tissue
[6] = target: rodent α3β3γ2 GABAA receptor on COS7 cells (Rattus norvegicus (α3 rat; β3, γ2 …, UniProt P20236;P63079;P18508); assay: immunostaining of cells or tissue
[7] = target: rodent α5β3γ2 GABAA receptor on COS7 cells (Rattus norvegicus (paper: rodent), UniProt P19969;P63079;P18508); assay: immunostaining of cells or tissue
[8] = target: rodent GABAA receptor β3 subunit alone on COS7 cells (Rattus norvegicus, UniProt P63079); assay: immunostaining of cells or tissue
[9] = target: rodent α1β3γ2 GABAA receptor on COS7 cells (Rattus norvegicus (alpha1, beta3); …, UniProt P62813;P63079;P18508); assay: immunostaining of cells or tissue
[10] = target: rodent α4β3γ2 GABAA receptor on COS7 cells (Rattus norvegicus (α4 rat; β3, γ2 …, UniProt P28471;P63079;P18508); assay: immunostaining of cells or tissue
[11] = target: rat α1β3 GABAA receptor on HEK293T cells (Rattus norvegicus, UniProt P62813;P63079); assay: immunostaining of cells or tissue

rodent α5β3γ2 GABAA receptor on COS7 cells, sequence (P19969 26-464, chain 1 of 3): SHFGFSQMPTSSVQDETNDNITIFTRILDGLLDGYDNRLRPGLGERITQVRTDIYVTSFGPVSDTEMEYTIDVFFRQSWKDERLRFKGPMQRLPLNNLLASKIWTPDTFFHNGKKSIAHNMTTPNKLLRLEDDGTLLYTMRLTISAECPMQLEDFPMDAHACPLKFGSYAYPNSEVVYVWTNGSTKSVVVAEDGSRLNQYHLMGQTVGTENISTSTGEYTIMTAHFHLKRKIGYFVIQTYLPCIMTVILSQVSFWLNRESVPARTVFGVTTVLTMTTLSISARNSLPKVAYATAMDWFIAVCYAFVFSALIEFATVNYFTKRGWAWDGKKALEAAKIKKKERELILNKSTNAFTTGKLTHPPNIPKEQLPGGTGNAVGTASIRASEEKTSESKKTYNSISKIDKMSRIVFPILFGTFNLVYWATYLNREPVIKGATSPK
rodent α5β3γ2 GABAA receptor on COS7 cells, sequence (P63079 26-473, chain 2 of 3): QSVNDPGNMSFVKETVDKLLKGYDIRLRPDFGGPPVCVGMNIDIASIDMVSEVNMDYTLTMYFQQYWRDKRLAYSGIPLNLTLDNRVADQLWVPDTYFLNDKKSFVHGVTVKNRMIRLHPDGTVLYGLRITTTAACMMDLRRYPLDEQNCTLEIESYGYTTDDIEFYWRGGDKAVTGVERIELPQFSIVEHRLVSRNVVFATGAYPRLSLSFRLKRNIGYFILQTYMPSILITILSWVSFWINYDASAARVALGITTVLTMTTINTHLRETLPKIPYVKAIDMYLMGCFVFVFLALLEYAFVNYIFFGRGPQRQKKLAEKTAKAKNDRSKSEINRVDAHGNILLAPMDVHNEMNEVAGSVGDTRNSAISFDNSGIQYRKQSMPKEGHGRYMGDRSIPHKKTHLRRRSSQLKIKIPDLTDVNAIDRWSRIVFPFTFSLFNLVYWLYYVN
rodent α5β3γ2 GABAA receptor on COS7 cells, sequence (P18508 39-466, chain 3 of 3): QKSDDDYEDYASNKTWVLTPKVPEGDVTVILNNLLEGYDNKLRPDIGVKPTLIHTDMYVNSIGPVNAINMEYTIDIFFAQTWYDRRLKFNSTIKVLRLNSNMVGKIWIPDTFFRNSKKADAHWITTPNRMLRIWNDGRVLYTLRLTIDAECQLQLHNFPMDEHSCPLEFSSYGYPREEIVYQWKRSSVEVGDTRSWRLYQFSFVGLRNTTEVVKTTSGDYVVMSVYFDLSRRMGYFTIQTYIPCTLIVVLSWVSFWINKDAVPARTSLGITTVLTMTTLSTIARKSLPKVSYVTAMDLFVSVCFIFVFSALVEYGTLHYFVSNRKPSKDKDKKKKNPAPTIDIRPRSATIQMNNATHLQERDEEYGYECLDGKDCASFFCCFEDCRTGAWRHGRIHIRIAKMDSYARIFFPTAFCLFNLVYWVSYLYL
rodent GABAA receptor β3 subunit alone on COS7 cells, sequence (P63079 26-473): as the sequence (P63079 26-473, chain 2 of 3) above
rat α1β3γ2 GABAA receptor on HEK293T cells, sequence (P62813 28-455, chain 1 of 3): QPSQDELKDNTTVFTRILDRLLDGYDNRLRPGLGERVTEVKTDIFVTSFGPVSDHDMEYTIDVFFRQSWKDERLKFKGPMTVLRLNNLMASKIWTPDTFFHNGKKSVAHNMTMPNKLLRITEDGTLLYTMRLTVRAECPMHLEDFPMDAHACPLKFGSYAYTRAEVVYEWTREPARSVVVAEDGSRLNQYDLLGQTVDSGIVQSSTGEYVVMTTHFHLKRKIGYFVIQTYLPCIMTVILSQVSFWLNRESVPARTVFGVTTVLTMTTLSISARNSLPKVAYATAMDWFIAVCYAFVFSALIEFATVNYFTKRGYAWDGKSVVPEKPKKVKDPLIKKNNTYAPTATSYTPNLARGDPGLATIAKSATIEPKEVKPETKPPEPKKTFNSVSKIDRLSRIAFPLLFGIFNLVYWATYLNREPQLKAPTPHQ
rat α1β3γ2 GABAA receptor on HEK293T cells, sequence (P63079 26-473, chain 2 of 3): as the sequence (P63079 26-473, chain 2 of 3) above
rat α1β3γ2 GABAA receptor on HEK293T cells, sequence (P18508 39-466, chain 3 of 3): as the sequence (P18508 39-466, chain 3 of 3) above
rodent α1β3γ2 GABAA receptor on COS7 cells, sequence (P62813 28-455, chain 1 of 3): as the sequence (P62813 28-455, chain 1 of 3) above
rodent α1β3γ2 GABAA receptor on COS7 cells, sequence (P63079 26-473, chain 2 of 3): as the sequence (P63079 26-473, chain 2 of 3) above
rodent α1β3γ2 GABAA receptor on COS7 cells, sequence (P18508 39-466, chain 3 of 3): as the sequence (P18508 39-466, chain 3 of 3) above
rodent GABAA receptor γ2 subunit alone on COS7 cells, sequence (P18508 39-466): as the sequence (P18508 39-466, chain 3 of 3) above

B1: human monoclonal GABAAR antibody #113-175 (antibody, V domains shown)
VH: EVQLLESGEGLVQPGGSLRLSCAASGFTFKTYAMSWVRQAPGKGLEWVSAISGSGASTYYADFVEGRFTISRDNSKNTLYLQMNSLRAEDTAVYYCAKEPPAMVWFGGGYFDYWGQGTLVTVSS
VL: EIVLTQSPATLSLSPGERATLSCRASQSVSSYLAWYQQKPGQAPRLLIYDASNRATGIPARFSGSGSGTDFTLTISSLEPEDFAVYYCQQRSNWPPYSFGQGTKLEIK
- binding result [1]: binds
- binding result [2]: binds
- binding result [3]: no binding (tested: 5 µg/ml)
- binding result [4]: no binding (tested: 5 µg/ml)
- binding result [5]: no binding (tested: 5 µg/ml)
- binding result [6]: no binding (tested: 5 µg/ml)
- binding result [7]: no binding (tested: 5 µg/ml)
- binding result [8]: no binding (tested: 5 µg/ml)
- binding result [9]: binds
- binding result [10]: no binding (tested: 5 µg/ml)
- binding result [11]: no binding

B2: human monoclonal GABAAR antibody #113-115 (antibody, V domains shown)
VH: QVQLVQSGAEVKKPGASVKVSCKASGYTFISYDINWVRQATGQGLEWMGGMDPKSGNTGYAQKFQGRVTMTTNTAISTAYMELSSLRSEDTAVYYCVRGEQSYDRTGYSDWFDPWGQGTLVTVSS
VL: not shown
- binding result [1]: binds
- binding result [2]: binds
- binding result [3]: no binding (tested: 5 µg/ml)
- binding result [4]: no binding (tested: 5 µg/ml)
- binding result [5]: binds
- binding result [6]: no binding (tested: 5 µg/ml)
- binding result [7]: no binding (tested: 5 µg/ml)
- binding result [8]: no binding (tested: 5 µg/ml)
- binding result [9]: binds
- binding result [10]: no binding (tested: 5 µg/ml)
- binding result [11]: binds
